US20240092867A1 (UNIVERSITY OF CHICAGO, published 2024)

T1: recombinant laminin α3 2928-3150 protein (linker domain and LG4 domain) (human, UniProt Q16787 2928-3150)
T1 construct: range 2928-3150; Made in HEK-293F cells; also called laminin alpha 3 LG domain recombinant protein
T1 sequence: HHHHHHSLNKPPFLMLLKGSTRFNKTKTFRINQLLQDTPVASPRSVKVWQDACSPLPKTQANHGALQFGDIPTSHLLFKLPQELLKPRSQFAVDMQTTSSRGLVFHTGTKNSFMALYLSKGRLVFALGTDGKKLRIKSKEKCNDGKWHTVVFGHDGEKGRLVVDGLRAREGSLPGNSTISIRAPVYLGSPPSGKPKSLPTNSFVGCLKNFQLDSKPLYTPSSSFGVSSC

T2: recombinant human VEGF-A145 (human, UniProt P15692-6 27-171)
T2 sequence (looked up): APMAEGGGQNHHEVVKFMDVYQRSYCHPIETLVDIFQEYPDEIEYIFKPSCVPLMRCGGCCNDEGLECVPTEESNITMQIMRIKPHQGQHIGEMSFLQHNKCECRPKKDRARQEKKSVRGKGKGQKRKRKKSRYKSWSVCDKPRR

B1: placental growth factor (PlGF)-1 (ligand, human, UniProt P49763-2 19-149, looked up)
chain: LPAVPPQQWALSAGNGSSEVEVVPFQEVWGRSYCRALERLVDVVSEYPSEVEHMFSPSCVSLLRCTGCCGDENLHCVPVETANVTMQLLKIRSGDRPSYVELTFSQHVRCECRPLREKMKPERCGDAVPRR
notes: mature; Purchased in mature form
B2: Arg substituted HBD (peptide)
peptide: YIGLKDSKSPSELSSIASQVKYAC
notes: not in the list MOLECULES; also called vWF A1 HBD with Arg substituted by Ser; mutated HBD peptide
B3: vascular endothelial growth factor (VEGF)-A121 (ligand, human, UniProt P15692-9 27-147, looked up)
chain: APMAEGGGQNHHEVVKFMDVYQRSYCHPIETLVDIFQEYPDEIEYIFKPSCVPLMRCGGCCNDEGLECVPTEESNITMQIMRIKPHQGQHIGEMSFLQHNKCECRPKKDRARQEKCDKPRR
notes: mature; Purchased in mature form, not glycosylated

Columns and labels:
[1] = biological target: T3, recombinant human vWF A1 domain (human, UniProt P04275 1261-1468, limits assumed); assay: ELISA; recombinant vWF A1 domain coated (10 µg/mL, legend paragraph 67), GF in solution, detected with anti-PlGF antibody [panel B]
T3 construct: domain: A1; also called vWF A1 recombinant protein; recombinant A1 domain
Procedure: (§1) FIGS. 18A-C. […] Bound GFs were detected using a specific antibody for each GF (n=4, mean±SD). Statistical analyses were done using ANOVA with Tukey's test or Student's t-test. *p<0.05, **p<0.01.
(§2) ELISA tests were performed as described above. […] After blocking with 2% BSA solution containing PBS-T, 1 μg/mL of the recombinant human proteins VEGF-A121, VEGF-A165, PlGF-1, PlGF-2, PDGF-BB, FGF-2, CXCL-12α and CXCL-12γ were added. 1 μg/mL of BSA served as non-binding protein control. Bound GF or chemokine was detected with biotinylated antibodies for human VEGF-A, PlGF, PDGF-BB, FGF-2, or CXCL-12 (R & D Systems). The antibodies were detected by streptavidin-HRP (R & D Systems). Color development and the absorbance measurement were done as described above.

laminin-332 = biological target: T4, laminin-332 (human, UniProt Q16787 28-1724; Q13751 18-1172; Q13753 22-1193, limits assumed); assay: ELISA, GF coated, laminin 10 nM
T4 construct: Full-length recombinant human laminin isoform (BioLamina); chains read from the isoform name
Procedure: (§3) ELISA tests were performed as previously reported. In brief, ELISA plates (med-binding, Greiner Bio-One) were coated with 50 nM GFs at 37° C. for more than 2 hrs. […] Bound laminin was detected with rabbit anti-human laminin γ1 chain antibody (1:1000 dilution, Assay biotech) or rabbit anti-human laminin α3 chain antibody (1:1000 dilution, Assay biotech). After incubation with biotinylated anti-rabbit antibody for 60 min at room temperature (RT), HRP conjugated streptavidin (Jackson ImmunoResearch) was added. After 60 min of incubation at RT, 50 μL TMB substrate (Sigma-Aldrich) was added. The reactions were stopped by adding 25 μL of 2 N H₂SO₄. Subsequently, the absorbance at 450 nm was measured with a reference of 570 nm.

laminin-521 = biological target: T5, laminin-521 (human, UniProt O15230 36-3695; P55268 33-1798; P11047 34-1609); assay: ELISA, GF coated, laminin 10 nM
T5 construct: Full-length recombinant human laminin isoform (BioLamina); chains read from the isoform name
Procedure: as §3

laminin-411 = biological target: T6, laminin-411 (human, UniProt Q16363 25-1823; P07942 22-1786; P11047 34-1609); assay: ELISA, GF coated, laminin 10 nM
T6 construct: Full-length recombinant human laminin isoform (BioLamina); chains read from the isoform name
Procedure: as §3

laminin-111 = biological target: T7, laminin-111 (human, UniProt P25391 18-3075; P07942 22-1786; P11047 34-1609); assay: ELISA, GF coated, laminin 10 nM
T7 construct: Full-length recombinant human laminin isoform (BioLamina); Chain composition is read from the isoform name
Procedure: as §3

laminin-211 = biological target: T8, laminin-211 (human, UniProt P24043 23-3122; P07942 22-1786; P11047 34-1609); assay: ELISA, GF coated, laminin 10 nM
T8 construct: Full-length recombinant human laminin isoform (BioLamina); chains read from the isoform name
Procedure: as §3

laminin-421 = biological target: T9, laminin-421 (human, UniProt Q16363 25-1823; P55268 33-1798; P11047 34-1609); assay: ELISA, GF coated, laminin 10 nM
T9 construct: Full-length recombinant human laminin isoform (BioLamina); chains read from the isoform name
Procedure: as §3

laminin-511 = biological target: T10, laminin-511 (human, UniProt O15230 36-3695; P07942 22-1786; P11047 34-1609); assay: ELISA, GF coated, laminin 10 nM
T10 construct: Full-length recombinant human laminin isoform (BioLamina); chains read from the isoform name
Procedure: as §3

human plasma-derived vWF = biological target: T11, human plasma-derived vWF (human, UniProt P04275 764-2813); assay: ELISA, GF coated 50 nM, vWF 1 µg/mL
T11 construct: mature; also called plasma-derived purified vWF; von Willebrand factor
Procedure: ELISA tests were performed as previously reported1. In brief, ELISA plates (med-binding, Greiner Bio-One) were coated with 50 nM GFs at 37° C. for 2 hrs. […] Then, HRP conjugated goat anti-rabbit antibody (Jackson ImmunoResearch) was added. After 60 min of incubation, 50 μL TMB substrate (Sigma-Aldrich) was added. The reaction was stopped by adding 25 μL of 2N H2SO4. Subsequently, the absorbance at 450 nm was measured and subtracted the absorbance at 570 nm.

[2] = biological target: T1, recombinant laminin α3 2928-3150 …; assay: ELISA, LG domain protein coated
Procedure: Affinity of GFs against recombinant laminin LG domains. ELISA plates were coated with 1 μg/mL (A) α3₂₉₂₈₋₃₁₅₀, (B) α4₈₂₆₋₁₈₁₆, or (C) α5₃₀₂₆₋₃₄₈₂ and further incubated with 1 μg/mL of VEGF-A165, VEGF-A121, PlGF-2, PlGF-1, PDGF-BB, or FGF-2 solution. Bound GFs were detected using a specific antibody for each GF (n=4, mean±SEM). Statistical analyses were done using the Mann-Whitney U test by comparing the signals obtained from the laminin domain- and the BSA-coated wells. *p<0.05, **p<0.01. […] A SPR chip was functionalized with the laminin α3₂₉₂₈₋₃₁₅₀ recombinant protein (˜1000 RU), and each GF was flowed over the chip at indicated concentrations. Curves represent the specific responses (in RU) to laminin. Experimental curves were fitted with Langmuir binding kinetics.
ELISA tests were performed as described above. […] 1 μg/mL of BSA served as non-binding protein control. After blocking with 2% BSA PBS-0.05% Tween 20 (PBS-T) solution, 1 μg/mL of the recombinant human proteins (VEGF-A121, VEGF-A165, PlGF-1, PlGF-2, PDGF-BB or FGF-2) or 10 μg/mL of biotinylated heparin (Sigma-Aldrich) were added. Bound GF was detected with biotinylated antibodies for human VEGF, PlGF, PDGF-BB, or FGF-2 (R&D Systems). The antibodies were detected by streptavidin-HRP (R&D Systems).

[3] = biological target: T2, recombinant human VEGF-A145; assay: ELISA; peptides and vWF forms coated at 50 nM, VEGF-A in solution, detected with anti-VEGF-A antibody [panel C]
Procedure: (§4) (A) Diagram of exon sequence of VEGF-A showing inclusion (+) or exclusion (−) of heparin binding domain exons for the different VEGF-A isoforms. […] Bound VEGF-A was detected using a specific antibody for VEGF-A (n=4, mean±SD). Statistical comparisons were done using ANOVA with Tukey's test compared with BSA control. **p<0.01.
(§5) ELISA was performed as previously reported1. […] After blocking with 2% BSA solution containing PBS-T, 1 μg/mL of recombinant human VEGF-A121 (PeproTech), recombinant human VEGF-A145 (R & D Systems), or recombinant human VEGF-A165 (PeproTech) was added. Bound VEGF-A was detected with 1 μg/mL of mouse anti-human VEGF-A antibody (clone: 26503, R & D systems). After 60 min of incubation, horseradish peroxidase (HRP) conjugated goat anti-mouse antibody (1:2000 dilution, Dako) was added and incubated for another 60 min. Color development and the absorbance measurement were done as described above.

[4] = biological target: T12, vascular endothelial growth factor (VEGF)-A165 (human, UniProt P15692-4 27-191); assay: ELISA; peptides and vWF forms coated at 50 nM, VEGF-A in solution, detected with anti-VEGF-A antibody [panel B]
T12 construct: mature; Purchased in mature form, not glycosylated
Procedure: as §4, §5

[5] = biological target: B3; assay: ELISA; peptides and vWF forms coated at 50 nM, VEGF-A in solution, detected with anti-VEGF-A antibody [panel D]
Procedure: as §4, §5

[6] = biological target: T3, recombinant human vWF A1 domain; assay: ELISA; recombinant vWF A1 domain coated (10 µg/mL, legend paragraph 67), GF in solution, detected with anti-VEGF-A antibody [panel B]
Procedure: as §1, §2

[7] = biological target: T13, recombinant human vWF A2 domain (human, UniProt P04275 1498-1665); assay: ELISA; peptides and vWF forms coated at 50 nM, VEGF-A in solution, detected with anti-VEGF-A antibody [panel D]
T13 construct: domain: A2
Procedure: as §4, §5

[8] = biological target: T14, recombinant human vWF A3 domain (human, UniProt P04275 1683-1874); assay: as above
T14 construct: domain: A3
Procedure: as §4, §5

[9] = biological target: T15, pro-peptide containing recombinant vWF (UniProt P04275 23-2813); assay: as above
T15 construct: also called immature, pro-peptide-containing recombinant vWF
Procedure: as §4, §5

T9 sequence (Q16363 25-1823 limits assumed, chain 1 of 3): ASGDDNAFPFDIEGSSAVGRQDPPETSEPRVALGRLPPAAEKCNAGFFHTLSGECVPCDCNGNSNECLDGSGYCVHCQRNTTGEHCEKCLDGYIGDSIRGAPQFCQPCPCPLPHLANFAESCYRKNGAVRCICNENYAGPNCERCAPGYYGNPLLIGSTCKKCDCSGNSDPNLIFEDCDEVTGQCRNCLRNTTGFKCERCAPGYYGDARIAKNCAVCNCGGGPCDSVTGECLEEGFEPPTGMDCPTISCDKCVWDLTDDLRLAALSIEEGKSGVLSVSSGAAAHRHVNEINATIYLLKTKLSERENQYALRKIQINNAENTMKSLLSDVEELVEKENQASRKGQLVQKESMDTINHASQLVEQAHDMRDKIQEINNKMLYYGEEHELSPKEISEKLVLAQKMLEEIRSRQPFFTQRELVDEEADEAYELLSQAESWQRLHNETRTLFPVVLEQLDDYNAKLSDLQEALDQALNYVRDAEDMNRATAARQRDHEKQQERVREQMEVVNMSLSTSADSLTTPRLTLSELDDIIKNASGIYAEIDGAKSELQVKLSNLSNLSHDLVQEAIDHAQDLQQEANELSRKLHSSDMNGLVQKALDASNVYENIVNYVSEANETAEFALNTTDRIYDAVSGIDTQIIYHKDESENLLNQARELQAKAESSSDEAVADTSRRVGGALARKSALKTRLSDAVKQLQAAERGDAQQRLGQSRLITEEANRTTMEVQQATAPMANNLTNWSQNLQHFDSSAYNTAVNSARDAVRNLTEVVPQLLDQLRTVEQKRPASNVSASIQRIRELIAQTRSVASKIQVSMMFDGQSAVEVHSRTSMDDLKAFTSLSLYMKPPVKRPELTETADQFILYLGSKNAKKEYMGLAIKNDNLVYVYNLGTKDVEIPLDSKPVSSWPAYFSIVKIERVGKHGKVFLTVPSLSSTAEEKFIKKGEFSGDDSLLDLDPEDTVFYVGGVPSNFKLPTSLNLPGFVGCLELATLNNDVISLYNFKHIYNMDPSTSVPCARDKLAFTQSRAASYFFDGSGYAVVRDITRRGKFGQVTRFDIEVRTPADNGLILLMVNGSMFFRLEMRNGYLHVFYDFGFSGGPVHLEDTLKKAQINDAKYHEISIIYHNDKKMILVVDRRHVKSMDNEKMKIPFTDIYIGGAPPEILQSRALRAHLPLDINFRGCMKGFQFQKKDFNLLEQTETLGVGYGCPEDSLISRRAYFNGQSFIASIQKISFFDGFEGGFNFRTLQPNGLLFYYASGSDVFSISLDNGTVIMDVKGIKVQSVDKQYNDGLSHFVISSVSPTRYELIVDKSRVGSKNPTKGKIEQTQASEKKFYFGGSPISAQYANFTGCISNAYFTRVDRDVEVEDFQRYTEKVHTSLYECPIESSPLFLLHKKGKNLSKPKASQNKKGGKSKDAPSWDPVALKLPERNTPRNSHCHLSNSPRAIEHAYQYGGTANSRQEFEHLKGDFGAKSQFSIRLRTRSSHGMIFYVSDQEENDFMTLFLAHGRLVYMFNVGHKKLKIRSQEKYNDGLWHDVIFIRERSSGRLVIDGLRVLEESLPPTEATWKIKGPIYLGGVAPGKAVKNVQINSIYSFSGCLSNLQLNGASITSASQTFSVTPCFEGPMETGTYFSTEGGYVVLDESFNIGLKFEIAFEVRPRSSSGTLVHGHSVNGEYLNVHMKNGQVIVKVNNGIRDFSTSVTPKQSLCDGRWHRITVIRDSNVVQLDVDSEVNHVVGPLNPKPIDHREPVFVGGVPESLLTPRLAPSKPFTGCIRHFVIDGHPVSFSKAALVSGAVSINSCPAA
T9 sequence (P55268 33-1798 limits assumed, chain 2 of 3): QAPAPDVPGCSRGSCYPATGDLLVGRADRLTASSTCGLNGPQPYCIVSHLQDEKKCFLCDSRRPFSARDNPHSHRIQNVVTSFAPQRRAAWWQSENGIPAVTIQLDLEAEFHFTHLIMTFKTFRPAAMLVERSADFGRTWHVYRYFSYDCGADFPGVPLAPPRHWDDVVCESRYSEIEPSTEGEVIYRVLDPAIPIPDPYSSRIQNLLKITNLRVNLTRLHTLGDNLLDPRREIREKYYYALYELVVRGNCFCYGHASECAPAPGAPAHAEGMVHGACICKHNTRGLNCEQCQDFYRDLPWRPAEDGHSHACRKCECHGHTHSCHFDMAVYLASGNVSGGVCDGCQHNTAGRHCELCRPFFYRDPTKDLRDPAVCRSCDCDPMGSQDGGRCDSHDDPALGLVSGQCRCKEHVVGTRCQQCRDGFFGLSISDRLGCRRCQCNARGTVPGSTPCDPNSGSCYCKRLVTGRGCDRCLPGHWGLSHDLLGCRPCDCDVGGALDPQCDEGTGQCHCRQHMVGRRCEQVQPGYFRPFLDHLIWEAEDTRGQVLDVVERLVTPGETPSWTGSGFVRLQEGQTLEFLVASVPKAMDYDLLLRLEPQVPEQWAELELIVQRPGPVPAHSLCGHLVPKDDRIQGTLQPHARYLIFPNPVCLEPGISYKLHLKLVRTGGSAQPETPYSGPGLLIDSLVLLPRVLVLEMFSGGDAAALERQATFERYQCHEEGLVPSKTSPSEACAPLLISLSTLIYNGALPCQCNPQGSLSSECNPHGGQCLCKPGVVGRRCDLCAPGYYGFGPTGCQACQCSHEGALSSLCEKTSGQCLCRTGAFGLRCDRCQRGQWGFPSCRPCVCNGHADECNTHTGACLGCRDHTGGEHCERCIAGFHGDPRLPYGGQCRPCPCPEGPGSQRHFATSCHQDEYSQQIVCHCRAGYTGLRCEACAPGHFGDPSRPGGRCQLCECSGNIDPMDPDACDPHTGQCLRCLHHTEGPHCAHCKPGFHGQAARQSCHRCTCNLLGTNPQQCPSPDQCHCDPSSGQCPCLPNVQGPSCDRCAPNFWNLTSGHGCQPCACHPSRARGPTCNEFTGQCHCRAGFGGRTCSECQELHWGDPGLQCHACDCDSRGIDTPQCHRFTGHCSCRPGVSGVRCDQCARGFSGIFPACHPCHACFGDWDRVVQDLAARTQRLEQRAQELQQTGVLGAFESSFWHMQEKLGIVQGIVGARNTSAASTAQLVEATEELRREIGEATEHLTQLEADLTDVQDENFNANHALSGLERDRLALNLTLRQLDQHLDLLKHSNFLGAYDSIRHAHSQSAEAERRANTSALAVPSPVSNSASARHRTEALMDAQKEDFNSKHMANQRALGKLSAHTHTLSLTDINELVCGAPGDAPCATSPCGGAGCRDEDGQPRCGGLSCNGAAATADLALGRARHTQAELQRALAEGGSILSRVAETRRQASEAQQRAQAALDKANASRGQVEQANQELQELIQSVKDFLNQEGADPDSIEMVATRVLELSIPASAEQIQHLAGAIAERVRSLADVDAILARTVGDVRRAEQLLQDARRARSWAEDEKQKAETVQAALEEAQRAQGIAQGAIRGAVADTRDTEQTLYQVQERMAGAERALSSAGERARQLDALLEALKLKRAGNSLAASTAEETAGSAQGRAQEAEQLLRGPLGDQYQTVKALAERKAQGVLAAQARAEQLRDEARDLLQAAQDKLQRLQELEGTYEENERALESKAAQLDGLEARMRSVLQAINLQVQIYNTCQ
T9 sequence (P11047 34-1609 limits assumed, chain 3 of 3): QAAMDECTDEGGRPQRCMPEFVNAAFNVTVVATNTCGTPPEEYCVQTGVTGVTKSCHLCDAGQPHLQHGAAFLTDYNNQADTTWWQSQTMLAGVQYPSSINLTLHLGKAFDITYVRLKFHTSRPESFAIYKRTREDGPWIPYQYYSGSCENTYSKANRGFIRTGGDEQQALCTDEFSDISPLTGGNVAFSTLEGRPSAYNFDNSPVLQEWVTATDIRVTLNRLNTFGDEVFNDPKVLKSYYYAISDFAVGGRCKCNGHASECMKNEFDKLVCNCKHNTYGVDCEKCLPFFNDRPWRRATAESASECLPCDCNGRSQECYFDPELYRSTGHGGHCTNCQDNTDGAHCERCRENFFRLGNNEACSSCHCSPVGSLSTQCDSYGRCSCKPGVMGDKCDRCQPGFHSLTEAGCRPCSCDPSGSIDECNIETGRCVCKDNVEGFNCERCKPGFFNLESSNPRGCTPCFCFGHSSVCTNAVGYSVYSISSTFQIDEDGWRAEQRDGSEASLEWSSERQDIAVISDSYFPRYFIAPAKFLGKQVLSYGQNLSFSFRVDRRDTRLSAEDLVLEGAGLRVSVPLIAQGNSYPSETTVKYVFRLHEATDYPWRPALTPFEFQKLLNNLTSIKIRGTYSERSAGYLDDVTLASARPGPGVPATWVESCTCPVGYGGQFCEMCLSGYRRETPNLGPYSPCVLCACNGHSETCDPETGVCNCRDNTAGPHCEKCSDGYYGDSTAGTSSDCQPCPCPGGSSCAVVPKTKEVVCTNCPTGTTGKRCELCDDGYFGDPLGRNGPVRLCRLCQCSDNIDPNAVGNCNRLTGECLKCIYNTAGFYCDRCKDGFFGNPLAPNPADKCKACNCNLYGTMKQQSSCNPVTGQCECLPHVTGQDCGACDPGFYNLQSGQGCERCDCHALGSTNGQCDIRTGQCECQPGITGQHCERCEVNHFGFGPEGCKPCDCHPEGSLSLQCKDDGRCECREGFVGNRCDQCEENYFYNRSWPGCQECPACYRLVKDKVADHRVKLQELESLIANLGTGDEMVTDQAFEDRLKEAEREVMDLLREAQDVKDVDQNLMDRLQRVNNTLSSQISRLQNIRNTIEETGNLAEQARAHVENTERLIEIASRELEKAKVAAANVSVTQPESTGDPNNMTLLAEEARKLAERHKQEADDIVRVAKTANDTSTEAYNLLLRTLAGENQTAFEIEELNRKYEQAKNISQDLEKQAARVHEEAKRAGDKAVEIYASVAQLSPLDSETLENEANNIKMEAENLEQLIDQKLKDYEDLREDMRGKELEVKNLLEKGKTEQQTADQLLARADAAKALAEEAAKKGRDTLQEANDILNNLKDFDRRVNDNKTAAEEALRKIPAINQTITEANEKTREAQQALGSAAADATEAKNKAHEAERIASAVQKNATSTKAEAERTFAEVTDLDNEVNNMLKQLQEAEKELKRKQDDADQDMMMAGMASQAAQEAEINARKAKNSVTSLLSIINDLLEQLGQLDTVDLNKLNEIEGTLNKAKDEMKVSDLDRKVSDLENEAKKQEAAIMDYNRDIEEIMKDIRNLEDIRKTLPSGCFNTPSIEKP

Row | binding result (laminin-332) | binding result (laminin-521) | binding result (laminin-411) | binding result (laminin-111) | binding result (laminin-211) | binding result (laminin-421) | binding result (laminin-511) | binding result (human plasma-derived vWF) | binding result [2] | Binder | binding result [1] | binding result [3] | binding result [4] | binding result [5] | binding result [6] | binding result [7] | binding result [8] | binding result [9]
1 | no binding (tested: A450 0.1) | no binding (tested: A450 0.1) | no binding (tested: A450 0.1) | no binding (tested: A450 0.1) | no binding (tested: A450 0.1) | no binding (tested: A450 0.1) | no binding (tested: A450 0.1) | no binding | no binding (tested: 1 µg/mL) | B1 | no binding (tested: 1 µg/mL PlGF-1 (single concentration)) |  |  |  |  |  |  | 
2 |  |  |  |  |  |  |  |  |  | B2 |  | no binding (tested: 1 µg/mL VEGF-A145 (single concentration)) | no binding (tested: 1 µg/mL VEGF-A165 (single concentration)) | no binding (tested: 1 µg/mL VEGF-A121 (single concentration)) |  |  |  | 
3 | no binding (tested: A450 0.1) | no binding (tested: A450 0.1) | no binding (tested: A450 0.1) | no binding (tested: A450 0.1) | no binding (tested: A450 0.1) | no binding (tested: A450 0.1) | no binding (tested: A450 0.1) | no binding | no binding (tested: 1 µg/mL) | B3 |  |  |  |  | no binding (tested: 1 µg/mL VEGF-A121 (single concentration)) | no binding (tested: 1 µg/mL VEGF-A121 (single concentration)) | no binding (tested: 1 µg/mL VEGF-A121 (single concentration)) | no binding (tested: 1 µg/mL VEGF-A121 (single concentration))
